Source: FireProtDB (doi:10.1016/s0022-2836(99)80018-7)

Conditions: Bacillus amyloliquefaciens; pH 6.3; 25 °C; Urea; Fluorescence; MES 50 mM; reversible: yes; whole UniProt chain shown

B1: Ribonuclease wild type, P00648 (protein)
chain: MMKMEGIALKKRLSWISVCLLVLVSAAGMLFSTAAKTETSSHKAHTEAQVINTFDGVADYLQTYHKLPDNYITKSEAQALGWVASKGNLADVAPGKSIGGDIFSNREGKLPGKSGRTWREADINYTSGFRNSDRILYSSDWLIYKTTDHYQTFTKIR
With B1 the denaturant m value was 2.02 kcal/mol/M, the “denaturant midpoint (higher = more stable)” value was 4.58 M and the unfolding free energy was 9.93 kcal/mol.
